1 substance from article PMC6694467 can be followed below.

For this assay, the target named is monomeric PKG Iβ that lacks the dimerization domain. The assay is described as follows: crystal structure; PKG Iβ holoenzyme lacking the dimerization domain, 2.3 Å; inhibited state.

Consider “monomeric PKG Iβ that lacks the dimerization domain (domain or fragment)”, for which the stoichiometry N is 2.

In general, stoichiometry N refers to the number of molecules, sites or subunits per partner or assembly.
